Reference: US20120142103A1, “METHOD FOR INDUCING DIFFERENTIATION INTO EPITHELIAL PROGENITOR CELL/STEM CELL POPULATION AND CORNEAL EPITHELIAL CELL POPULATION FROM INDUCED PLURIPOTENT STEM CELLS” (priority 2010, published 2012)

System: mouse iPS cells
Test: Modified KCM method: differentiation of mouse iPS cells on collagen into epithelial progenitor/stem cells (immunostaining, flow cytometry of keratin 14-positive cells)
Assay type: cell-based
Protocol: The iPS cells on the SNL feeders were collected by treatment with 0.25% trypsin/EDTA and further pipetted to prepare an iPS cell suspension (single cell suspension). The obtained cell suspension was incubated on a gelatin-coated culture dish for approximately 1 to 2 hours. The supernatant was collected to thereby allow only the feeder cells to adhere to the dish and collect only the iPS cells. The number of the obtained iPS cells was counted. The iPS cells were inoculated at a density of 0.5 to 10×10^3 cells/cm^2 onto a type IV collagen-coated culture dish as described below and cultured at 37° C. for 7 to 28 days in a 5% CO2 atmosphere using a KCM medium shown below. 0.5 nM BMP4, (R&D System) was further added to the KCM medium, and the cells were cultured in the same way as above.
The cells after differentiation induction were examined for the expressions of a basal epithelial cell marker keratin 14, an epithelial progenitor cell/stem cell marker p63, and a corneal epithelial differentiation marker keratin 12 by an immunostaining method. Moreover, keratin 14-positive cells were analyzed by flow cytometry. The immunostaining method and the flow cytometry analysis will be shown in detail below.
After fixation in cold methanol (−30° C./20 min), 5% NST was added to the cells, which were then left at room temperature for 30 minutes for blocking. […]

B1: BMP4: Bone Morphogenetic Protein 4, one of bone morphogenetic factors, belongs to the transforming growth factor-β (TGF-β) superfamily (protein, UniProt P12644 293-408, looked up)
Bone morphogenetic protein 4: SPKHHSQRARKKNKNCRRHSLYVDFSDVGWNDWIVAPPGYQAFYCHGDCPFPLADHLNSTNHAIVQTLVNSVNSSIPKACCVPTELSAISMLYLDEYDKVVLKNYQEMVVEGCGCR
B1 was tested, and the “induction efficiency of differentiation (keratin 14-positive cells, flow cytometry)” value (0.5 nM BMP4 added to KCM medium, day 28, 2.9% without BMP4) was 6.0% and the “epithelial induction efficiency (keratin 14-positive and p63-positive cells, immunostaining)” value (BMP4 added to KCM medium, day 28) was “significantly increased epithelial induction efficiency”.
